T1: cyno CD137 (cynomolgus monkey, UniProt Q07011 24-186 (human entry), limits assumed)
T1 construct: also called cynomolgus monkey CD137
T1 chain: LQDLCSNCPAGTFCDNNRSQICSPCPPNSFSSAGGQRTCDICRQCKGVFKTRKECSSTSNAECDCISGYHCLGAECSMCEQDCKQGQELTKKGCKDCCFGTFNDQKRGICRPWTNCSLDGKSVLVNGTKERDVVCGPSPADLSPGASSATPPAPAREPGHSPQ

T2: Human CD3eg linker (human)
T2 construct: Single chain: CD3 epsilon and gamma subunits joined by a 29-mer linker, Flag-tag at the C-terminus; also called recombinant human CD3
T2 chain: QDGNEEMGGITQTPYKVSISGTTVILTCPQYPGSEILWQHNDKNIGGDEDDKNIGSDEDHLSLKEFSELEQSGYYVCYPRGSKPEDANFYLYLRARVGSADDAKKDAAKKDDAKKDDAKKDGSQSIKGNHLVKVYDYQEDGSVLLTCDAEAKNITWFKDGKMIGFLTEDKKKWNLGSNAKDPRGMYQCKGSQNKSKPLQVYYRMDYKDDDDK


How the values were obtained:
cyno CD137 = target: T1, cyno CD137; experiment: SPR Biacore T200, IgG captured on protein A, 25 C;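 note: antigens diluted in ACES running buffer at pH 7.4 were flowed over antibodies held on a CM3 chip bearing amine-coupled protein A, with buffer alone serving as blank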
human CD3 ed = human CD3 ed (human, UniProt P07766 23-126; P04234 22-105, limits assumed); experiment: SPR Biacore T200, IgG captured on protein A, 25 C;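 note: antigens diluted in ACES running buffer at pH 7.4 were flowed over antibodies held on a CM3 chip bearing amine-coupled protein A, with buffer alone serving as blank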
Human CD137 ECD = target: T3, Human CD137 ECD (human); experiment: SPR Biacore T200, 37 C, Ab captured on anti-human Fc, antigen as analyte;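 note: recombinant human CD137 flowed over antibodies held by amine-coupled anti-human Fc on a CM4 chip, run in ACES pH 7.4 buffer with 150 mM NaCl and 0.05% Tween 20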
T3 construct: also called human CD137 extracellular domain; recombinant human CD137

Human CD3eg linker = target: T2, Human CD3eg linker; experiment: SPR Biacore T200, 25 C, Ab captured on anti-human Fc, antigen as analyte;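 note: Anti-Fc amine-coupled to a CM4 chip, recombinant human CD3 flowed over in 20 mM ACES buffer pH 7.4 with 150 mM NaCl and 0.05% Tween 20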
human CD137-Fc [1] = target: T4, human CD137-Fc (human, biotin-labeled); experiment: bead ELISA on biotin-human CD137-Fc with 125 pmol/well free CD3e peptide as competitor;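 note: Streptavidin-coated magnetic beads in blocking buffer as the capture surface, well signal read as fluorescence 2 min after adding APS-5 substrate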
T4 construct: if 90 already holds the Fc, drop the second piece; also called biotin-labeled human CD137 fused to human IgG1 Fc fragment; biotin-human CD137-Fc; not shown: human IgG1 Fc fragment

human CD137-Fc [2] = target: T4, human CD137-Fc; experiment: bead ELISA on biotin-human CD137-Fc, 125 vs 0 pmol free CD3e peptide;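 note: target captured on streptavidin-coated magnetic beads, signal read as fluorescence 2 min after adding APS-5 substrate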
human CD137-Fc [3] = target: T4, human CD137-Fc; experiment: bead ELISA on biotin-human CD137-Fc, 0 pmol free CD3e peptide

Kd (cyno CD137) [µM] | koff (cyno CD137) [s⁻¹] | kon (cyno CD137) [M⁻¹ s⁻¹] | Kd (human CD3 ed) [µM] | koff (human CD3 ed) [s⁻¹] | kon (human CD3 ed) [M⁻¹ s⁻¹] | Kd (Human CD137 ECD) [µM] | koff (Human CD137 ECD) [s⁻¹] | kon (Human CD137 ECD) [M⁻¹ s⁻¹] | Kd (Human CD3eg linker) [µM] | koff (Human CD3eg linker) [s⁻¹] | kon (Human CD3eg linker) [M⁻¹ s⁻¹] | ELISA signal (human CD137-Fc [1]) | Signal decrease (human CD137-Fc [2]) [%] | ELISA signal (human CD137-Fc [3]) | Binder
4.17 | 0.0101 | 2430 | 0.413 | 0.0216 | 52400 |  |  |  |  |  |  |  |  |  | dBBDu167/L091 (antibody, V domains shown, IgG format; constant regions not specified) VH: QVQLVESGGGLVQPGRSLRLSCAASGFTFSNAWMHWVRQAPGKGLEWVAQIKDKGNLYAAYYAPSVKGRFTISRDDSKNSIYLQMNSLKTEDTAVYYCHYVHYASAGGGLPGFGVDAWGQGTTVTVSS VL: DIVMTQSPLSLPVTPGEPASISCSASESLLHNNRHTYLHWYQQKPGQAPRLLIYRVSNRFNGVPDRFSGSGSGTDFTLKISRVEAEDVGVYYCGQGTQVPFTFGQGTKLEIK
205 | 0.00223 |  | 9.11 | 0.102 | 11200 |  |  |  |  |  |  |  |  |  | dBBDu186/L096 (antibody, V domains shown, IgG format; constant regions not specified) VH: QVQLVESGGGLVQPGRSLRLSCAASGFTFSNAWMHWVRQAPGKGLEWVAQIKDRSNQYATYYAPSVKGRFTISRDDSKNSIYLQMNSLKTEDTAVYYCHYVHYAQASTVLPAFGVDAWGQGTTVTVSS VL: DIVMTQSPLSLPVTPGEPASISCRTSQELVHINRYIFLHWYQQKPGQAPRLLIYKVYNRFQGVPDRFSGSGSGTDFTLKISRVEAEDVGVYYCAQGTSVPYTFGQGTKLEIK
 |  |  |  |  |  | 0.0432 | 0.000603 | 14000 | 0.517 | 0.0371 | 71800 |  |  |  | H1651L0581 (antibody, V domains shown, Dual-Ig, IgG; also called dBBDu183H1651/dBBDu072L0581) VH: QVQLVESGGGLVQPGRSLRLSCAASGFVFSNVWFHWVRQAPGKGLEWVAQIKDKYNAYADYYAPSVEGRFTISRDDSKNSIYLQMNSLKTEDTAVYYCHYVHYASASTLLPAEGVDAWGQGTTVTVSS VL: DIVMTQSPLSLPVTPGEPASISCQPSQEVVHMNRNTYLHWYQQKPGQAPRLLIYKVSNRFPGVPDRFSGSGSGTDFTLKISRVEAEDVGVYYCAQGTSHPFTFGQGTKLEIK
 |  |  |  |  |  | 0.0804 | 0.00096 | 11900 | 0.0133 | 0.00106 | 79600 |  |  |  | H1673L0581 (antibody, V domains shown, Dual-Ig, IgG; also called dBBDu183H1673/dBBDu072L0581) VH: QVQLVESGGGLVQPGRSLRLSCAASGFVFSNVWFHWVRQAPGKGLEWVAQIKDKWNAYADYYAPSVKERFTISRDDSKNSIYLQMNSLKTEDTAVYYCHYIHYASASTLLPAEGIDAWGQGTTVTVSS VL: DIVMTQSPLSLPVTPGEPASISCQPSQEVVHMNRNTYLHWYQQKPGQAPRLLIYKVSNRFPGVPDRFSGSGSGTDFTLKISRVEAEDVGVYYCAQGTSHPFTFGQGTKLEIK
 |  |  |  |  |  |  |  |  |  |  |  | 2110 | 96.1 | 54400 | dBBDu197 (antibody, V domains shown, Human IgG1; light chain GLS3000 (kappa)) VH: QVQLVESGGGLVQPGRSLRLSCAASGFTFSNAWMHWVRQAPGKGLEWVAQIKDRSNAYAAYYAPSVKGRFTISRDDSKNSIYLQMNSLKTEDTAVYYCHYVHYASASTVLPAFGVDAWGQGTTVTVSS VL: DIVMTQSPLSLPVTPGEPASISCRSSQSLVHSNRNTYLHWYQQKPGQAPRLLIYKVSNRFSGVPDRFSGSGSGTDFTLKISRVEAEDVGVYYCGQGTQVPYTFGQGTKLEIK
 |  |  |  |  |  | 0.0363 | 0.000742 | 20400 | 0.525 | 0.0535 | 102000 |  |  |  | H2591L0581 (antibody, V domains shown, Dual-Ig, IgG; also called H2591L581; dBBDu183H2591/dBBDu072L0581) VH: QVQLVESGGGLVQPGRSLRLSCAASGFKFSNVWFHWVRQAPGKGLEWVAQIKDYYNAYAGYYHPSVKGRFTISRDDSKNSIYLQMNSLKTEDTAVYYCHYVHYAAASTLLPAEGVDAWGQGTTVTVSS VL: DIVMTQSPLSLPVTPGEPASISCQPSQEVVHMNRNTYLHWYQQKPGQAPRLLIYKVSNRFPGVPDRFSGSGSGTDFTLKISRVEAEDVGVYYCAQGTSHPFTFGQGTKLEIK
5.76 | 0.0286 | 4980 | 0.331 | 0.01 | 30300 |  |  |  |  |  |  |  |  |  | dBBDu189/L112 (antibody, V domains shown, IgG format; constant regions not specified) VH: QVQLVESGGGLVQPGRSLRLSCAASGFTFSNAWMHWVRQAPGKGLEWIAQIKDRSNQYATYYAPSVKGRFTISRDDSKNSIYLQMNSLKTEDTAVYYCHYVHYAQASSLLPSFGVDAWGQGTTVTVSS VL: DIVMTQSPLSLPVTPGEPASISCTSDQELVHMNRHTYLHWYQQKPGQAPRLLIYKVYNRFPGVPDRFSGSGSGTDFTLKISRVEAEDVGVYYCAQGTSVPFTFGQGTKLEIK
11.1 | 0.00823 | 744 | 0.209 | 0.00434 | 20800 |  |  |  |  |  |  |  |  |  | dBBDu189/L116 (antibody, V domains shown, IgG format; constant regions not specified) VH: QVQLVESGGGLVQPGRSLRLSCAASGFTFSNAWMHWVRQAPGKGLEWIAQIKDRSNQYATYYAPSVKGRFTISRDDSKNSIYLQMNSLKTEDTAVYYCHYVHYAQASSLLPSFGVDAWGQGTTVTVSS VL: DIVMTQSPLSLPVTPGEPASISCSSSQELVHANRQIYLHWYQQKPGQAPRLLIYKVANRFPGVPDRFSGSGSGTDFTLKISRVEAEDVGVYYCAQGTQVPFTFGQGTKLEIK
 |  |  |  |  |  | 0.0591 | 0.000722 | 12200 | 0.021 | 0.00116 | 55000 |  |  |  | H1673L0943 (antibody, V domains shown, Dual-Ig, IgG; also called dBBDu183H1673/dBBDu072L0943) VH: QVQLVESGGGLVQPGRSLRLSCAASGFVFSNVWFHWVRQAPGKGLEWVAQIKDKWNAYADYYAPSVKERFTISRDDSKNSIYLQMNSLKTEDTAVYYCHYIHYASASTLLPAEGIDAWGQGTTVTVSS VL: DIVMTQSPLSLPVTPGEPASISCQPSEEVVHMNRNTYLHWYQQKPGQAPRLLIYKVSNLFPGVPDRFSGSGSGTDFTLKISRVEAEDVGVYYCAQGTHHPFTFGQGTKLEIK
 |  |  |  |  |  | 0.0781 | 0.00163 | 20900 | 0.593 | 0.0584 | 98300 |  |  |  | H2594L0581 (antibody, V domains shown, Dual-Ig, IgG; also called H2594L581; dBBDu183H2594/dBBDu072L0581) VH: QVQLVESGGGLVQPGRSLRLSCAASGFKFSNVWFHWVRQAPGKGLEWVAQIKDYYNAYAGYYHPSVKGRFTISRDDSKNSIYLQMNSLKTEDTAVYYCHYVHYAAASQLLPAEGVDAWGQGTTVTVSS VL: DIVMTQSPLSLPVTPGEPASISCQPSQEVVHMNRNTYLHWYQQKPGQAPRLLIYKVSNRFPGVPDRFSGSGSGTDFTLKISRVEAEDVGVYYCAQGTSHPFTFGQGTKLEIK
 |  |  |  |  |  | 0.0328 | 0.000468 | 14300 | 0.789 | 0.0481 | 61000 |  |  |  | H1649L0943 (antibody, V domains shown, Dual-Ig, IgG; also called dBBDu183H1649/dBBDu072L0943) VH: QVQLVESGGGLVQPGRSLRLSCAASGFVFSNVWFHWVRQAPGKGLEWVAQIKDKYNAYADYYAPSVKERFTISRDDSKNSIYLQMNSLKTEDTAVYYCHYVHYASASTLLPAEGVDAWGQGTTVTVSS VL: DIVMTQSPLSLPVTPGEPASISCQPSEEVVHMNRNTYLHWYQQKPGQAPRLLIYKVSNLFPGVPDRFSGSGSGTDFTLKISRVEAEDVGVYYCAQGTHHPFTFGQGTKLEIK
3.12 | 0.00457 | 1470 | 0.276 | 0.0157 | 56900 |  |  |  |  |  |  |  |  |  | dBBDu183/L063 (antibody, V domains shown, IgG format; constant regions not specified) VH: QVQLVESGGGLVQPGRSLRLSCAASGFTFSNAWMHWVRQAPGKGLEWVAQIKDKGNAYAAYYAPSVKGRFTISRDDSKNSIYLQMNSLKTEDTAVYYCHYVHYASASTVLPAFGVDAWGQGTTVTVSS VL: DIVMTQSPLSLPVTPGEPASISCRSSQELVHTNRHTYLHWYQQKPGQAPRLLIYKVSNRFPGVPDRFSGSGSGTDFTLKISRVEAEDVGVYYCAQGTQVPFTFGQGTKLEIK
6.2 | 0.00813 | 1310 | 0.217 | 0.0193 | 88900 |  |  |  |  |  |  |  |  |  | dBBDu183/L067 (antibody, V domains shown, IgG format; constant regions not specified) VH: QVQLVESGGGLVQPGRSLRLSCAASGFTFSNAWMHWVRQAPGKGLEWVAQIKDKGNAYAAYYAPSVKGRFTISRDDSKNSIYLQMNSLKTEDTAVYYCHYVHYASASTVLPAFGVDAWGQGTTVTVSS VL: DIVMTQSPLSLPVTPGEPASISCQSSESLVHVNRHTYLHWYQQKPGQAPRLLIYKVYNRFPGVPDRFSGSGSGTDFTLKISRVEAEDVGVYYCAQGTSVPFTFGQGTKLEIK
4.87 | 0.00593 | 1220 | 0.217 | 0.00785 | 36100 |  |  |  |  |  |  |  |  |  | dBBDu183/L072 (antibody, V domains shown, IgG format; also called H183L072) VH: QVQLVESGGGLVQPGRSLRLSCAASGFTFSNAWMHWVRQAPGKGLEWVAQIKDKGNAYAAYYAPSVKGRFTISRDDSKNSIYLQMNSLKTEDTAVYYCHYVHYASASTVLPAFGVDAWGQGTTVTVSS VL: DIVMTQSPLSLPVTPGEPASISCQASQELVHMNRNTYLHWYQQKPGQAPRLLIYKVSNRFPGVPDRFSGSGSGTDFTLKISRVEAEDVGVYYCAQGTSVPFTFGQGTKLEIK

Reference: US20210388087A1 (Chugai, published 2021)
